Assay results as given in patent US20230407298A1 (Johns Hopkins, published 2023).

Molecular target: T1, XPO1 (human, UniProt O14980 1-1071)
T1 construct: Endogenous protein pulled down from iPSN nuclear lysates with mouse anti-XPO1 (Santa Cruz sc-74454) coupled to Protein G beads; also called CRM1; XPO1/CRM1
Experiment: co-immunoprecipitation with anti-XPO1 from iPSN nuclear lysates, western blot
Procedure: Nuclei were isolated from iPSNs as described above. The resulting nuclei pellet was lysed in 1 mL IP buffer by vortexing for 30-45 seconds. Nuclei lysates were centrifuged for 10 minutes at 2500 rpm and 4° C. to remove debris. Following centrifugation, the supernatant was transferred to a clean Eppendorf tube. 25 μL of the supernatant was added to μL 2× Laemmli buffer (BioRad) and set aside as protein input and an additional 25 μL supernatant was set aside on ice as RNA input. The remainder of the lysate was split equally between IgG and XPO1 antibody conjugated bead tubes. Lysates were incubated with beads with end over end rotation for 2 hours at 4° C. The unbound supernatant was discarded and immunoprecipitated complexes were washed 3×5 minutes in 200 μL IP buffer with end over end rotation at 4° C. Bead-IP complexes were resuspended in 200 μL IP buffer. 100 μL of each bead-IP complex sample was set aside for RNA analysis. For the remaining 100 μL, the supernatant was discarded and 50 μL 1× Laemmli buffer was added to bead-IP complexes. All RNA samples (including input) were added to 500 μL RLT Buffer (QIAGEN) and RNA isolation, cDNA synthesis, and qRT-PCR were performed as described below. Protein samples were analyzed by western blot as described below. Equal volumes of each sample (10 μL) were loaded in acrylamide gels. […]

T1 sequence (O14980 whole entry): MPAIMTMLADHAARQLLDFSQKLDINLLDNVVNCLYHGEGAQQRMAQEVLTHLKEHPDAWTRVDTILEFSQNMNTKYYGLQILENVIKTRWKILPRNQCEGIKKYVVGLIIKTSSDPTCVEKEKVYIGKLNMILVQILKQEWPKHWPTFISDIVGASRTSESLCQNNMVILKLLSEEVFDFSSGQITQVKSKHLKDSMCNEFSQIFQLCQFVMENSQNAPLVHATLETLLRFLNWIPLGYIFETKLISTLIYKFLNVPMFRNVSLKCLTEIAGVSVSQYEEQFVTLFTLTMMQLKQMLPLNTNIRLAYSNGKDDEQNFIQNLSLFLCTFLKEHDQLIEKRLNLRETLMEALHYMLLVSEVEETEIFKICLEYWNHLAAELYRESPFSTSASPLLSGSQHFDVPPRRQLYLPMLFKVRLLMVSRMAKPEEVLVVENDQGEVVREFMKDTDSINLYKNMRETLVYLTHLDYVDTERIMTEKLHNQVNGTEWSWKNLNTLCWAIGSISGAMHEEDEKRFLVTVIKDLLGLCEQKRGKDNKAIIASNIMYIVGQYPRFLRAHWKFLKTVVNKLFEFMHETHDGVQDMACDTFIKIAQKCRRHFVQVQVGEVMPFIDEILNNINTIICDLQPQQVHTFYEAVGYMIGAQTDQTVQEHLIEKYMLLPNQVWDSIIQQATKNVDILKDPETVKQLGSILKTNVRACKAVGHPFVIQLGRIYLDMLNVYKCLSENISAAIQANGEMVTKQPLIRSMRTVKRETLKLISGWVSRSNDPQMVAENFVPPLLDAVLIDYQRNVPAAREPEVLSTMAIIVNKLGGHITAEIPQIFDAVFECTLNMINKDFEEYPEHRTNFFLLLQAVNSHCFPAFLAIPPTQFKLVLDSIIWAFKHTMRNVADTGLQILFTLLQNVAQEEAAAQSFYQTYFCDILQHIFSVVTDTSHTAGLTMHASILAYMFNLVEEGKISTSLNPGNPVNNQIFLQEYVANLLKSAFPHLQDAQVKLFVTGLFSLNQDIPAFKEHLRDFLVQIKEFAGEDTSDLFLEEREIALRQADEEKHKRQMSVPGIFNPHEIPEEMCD

Row | binding result | Binder
1 | no binding | Lamin B1 (other, human, UniProt P20700 2-583, looked up, Absent from XPO1 immunoprecipitates by western blot) ATATPVPPRMGSRAGGPTTPLSPTRLSRLQEKEELRELNDRLAVYIDKVRSLETENSALQLQVTEREEVRGRELTGLKALYETELADARRALDDTARERAKLQIELGKCKAEHDQLLLNYAKKESDLNGAQIKLREYEAALNSKDAALATALGDKKSLEGDLEDLKDQIAQLEASLAAAKKQLADETLLKVDLENRCQSLTEDLEFRKSMYEEEINETRRKHETRLVEVDSGRQIEYEYKLAQALHEMREQHDAQVRLYKEELEQTYHAKLENARLSSEMNTSTVNSAREELMESRMRIESLSSQLSNLQKESRACLERIQELEDLLAKEKDNSRRMLTDKEREMAEIRDQMQQQLNDYEQLLDVKLALDMEISAYRKLLEGEEERLKLSPSPSSRVTVSRASSSRSVRTTRGKRKRVDVEESEASSSVSISHSASATGNVCIEEIDVDGKFIRLKNTSEQDQPMGGWEMIRKIGDTSVSYKYTSRYVLKAGQTVTIWAANAGVTASPPTDLIWKNQNSWGTGEDVKVILKNSQGEEVAQRSTVFKTTIPEEEEEEEEAAGVVVEEELFHQQGTPRASNRSC
2 | no binding | LEMD2 (other, human, UniProt Q8NC56 2-503, looked up, Absent from XPO1 immunoprecipitates by western blot; also called LEM2) AGLSDLELRRELQALGFQPGPITDTTRDVYRNKLRRLRGEARLRDEERLREEARPRGEERLREEARLREDAPLRARPAAASPRAEPWLSQPASGSAYATPGAYGDIRPSAASWVGSRGLAYPARPAQLRRRASVRGSSEEDEDARTPDRATQGPGLAARRWWAASPAPARLPSSLLGPDPRPGLRATRAGPAGAARARPEVGRRLERWLSRLLLWASLGLLLVFLGILWVKMGKPSAPQEAEDNMKLLPVDCERKTDEFCQAKQKAALLELLHELYNFLAIQAGNFECGNPENLKSKCIPVMEAQEYIANVTSSSSAKFEAALTWILSSNKDVGIWLKGEDQSELVTTVDKVVCLESAHPRMGVGCRLSRALLTAVTNVLIFFWCLAFLWGLLILLKYRWRKLEEEEQAMYEMVKKIIDVVQDHYVDWEQDMERYPYVGILHVRDSLIPPQSRRRMKRVWDRAVEFLASNESRIQTESHRVAGEDMLVWRWTKPSSFSDSER
